{"source": "paper PMC13311836", "about": "“Clinically observed RASA1 missense mutants exhibit diverse RasGAP protein behaviors in vitro” (The Journal of Biological Chemistry, 2026)", "binders": {"B1": {"name": "p190RhoGAP phosphopeptide, residues 1083 to 1111 (pY1087, pY1105) (peptide)", "peptide": "Ac-DPSD[pY]AEPMDAVVKPRNEEENI[pY]SVPHDS-NH2", "notes": "p190RhoGAP (ARHGAP35), UniProt Q9NRY4, residues 1083-1111, 29 amino acids; also called p190RhoGAP peptide; ARHGAP35 peptide; source: synthetic peptide, bought: GenScript"}}, "key": {"[1]": {"target": "T1, RasGAP SH2-SH3-SH2 construct (residues 174 to 444), R427Q (human, UniProt P20936 174-444, C236S | C261S | C372S | C402S | R427Q)", "T1 sequence": "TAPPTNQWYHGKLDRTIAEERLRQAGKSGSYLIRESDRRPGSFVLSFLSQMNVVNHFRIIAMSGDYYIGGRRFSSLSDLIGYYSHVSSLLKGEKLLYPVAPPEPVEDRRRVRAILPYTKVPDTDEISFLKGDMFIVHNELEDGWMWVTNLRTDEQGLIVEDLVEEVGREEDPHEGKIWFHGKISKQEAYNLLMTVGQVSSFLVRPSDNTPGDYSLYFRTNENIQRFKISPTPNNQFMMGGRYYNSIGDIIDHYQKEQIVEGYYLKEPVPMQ", "assay": "ITC; average"}, "[2]": {"target": "T2, RasGAP SH2-SH3-SH2 construct (residues 174 to 444), WT (human, UniProt P20936 174-444, C236S | C261S | C372S | C402S)", "T2 sequence": "T1 sequence with Q254R", "assay": "ITC; average"}, "[3]": {"target": "T3, RasGAP SH2-SH3-SH2 construct (residues 174 to 444), R194C (human, UniProt P20936 174-444, R194C | C236S | C261S | C372S | C402S)", "T3 sequence": "T1 sequence with R21C, Q254R", "assay": "ITC; average"}, "[4]": {"target": "T2, RasGAP SH2-SH3-SH2 construct (residues …)", "assay": "ITC; replicate, Figure S7 panel A"}, "[5]": {"target": "T2, RasGAP SH2-SH3-SH2 construct (residues …)", "assay": "ITC; replicate, Figure S7 panel B"}, "[6]": {"target": "T3, RasGAP SH2-SH3-SH2 construct (residues …)", "assay": "ITC; replicate, Figure S7 panel C"}, "[7]": {"target": "T3, RasGAP SH2-SH3-SH2 construct (residues …)", "assay": "ITC; replicate, Figure S7 panel D"}, "[8]": {"target": "T3, RasGAP SH2-SH3-SH2 construct (residues …)", "assay": "ITC; replicate, Figure S7 panel E"}, "[9]": {"target": "T1, RasGAP SH2-SH3-SH2 construct (residues …)", "assay": "ITC; replicate, Figure S7 panel F"}, "[10]": {"target": "T1, RasGAP SH2-SH3-SH2 construct (residues …)", "assay": "ITC; replicate, Figure S7 panel G"}, "[11]": {"target": "T4, RasGAP SH2-SH3-SH2 construct (residues 174 to 444), WT (human, UniProt P20936 174-444, C236S | C261S | C372S | C402S)", "T4 construct": "also called p120RasGAP SH2-SH3-SH2; RASA1; source: E. coli Rosetta (DE3), purified (Ni-NTA, TEV cleavage, anion exchange, SEC); not shown: His6, N-terminal, cleaved", "T4 sequence (looked up)": "T1 sequence with Q254R", "assay": "ITC; about 25 μM peptide in the syringe titrated into about 5 μM RasGAP SH2-SH3-SH2 in the cell; 25 °C; 250 mM NaCl, 20 mM Tris pH 8, 1 mM TCEP; Independent model", "conditions": "both partners purified"}, "[12]": {"target": "T5, RasGAP SH2-SH3-SH2 construct (residues 174 to 444), R194C (human, UniProt P20936 174-444, R194C | C236S | C261S | C372S | C402S)", "T5 construct": "human RasGAP (p120RasGAP, RASA1), UniProt P20936, residues 174-444, with C236S, C261S, C372S, C402S and the cancer-associated N-SH2 mutation R194C; also called p120RasGAP SH2-SH3-SH2 R194C; source: E. coli Rosetta (DE3), purified (Ni-NTA, TEV cleavage, anion exchange, SEC); not shown: His6, N-terminal, cleaved", "T5 sequence (looked up)": "T1 sequence with R21C, Q254R", "assay": "ITC; about 25 μM peptide in the syringe titrated into about 5 μM RasGAP SH2-SH3-SH2 in the cell; 25 °C; 250 mM NaCl, 20 mM Tris pH 8, 1 mM TCEP; Independent model", "conditions": "both partners purified"}, "[13]": {"target": "T6, RasGAP SH2-SH3-SH2 construct (residues 174 to 444), R427Q (human, UniProt P20936 174-444, C236S | C261S | C372S | C402S | R427Q)", "T6 construct": "human RasGAP (p120RasGAP, RASA1), UniProt P20936, residues 174-444, with C236S, C261S, C372S, C402S and the cancer-associated C-SH2 mutation R427Q; also called p120RasGAP SH2-SH3-SH2 R427Q; source: E. coli Rosetta (DE3), purified (Ni-NTA, TEV cleavage, anion exchange, SEC); not shown: His6, N-terminal, cleaved", "T6 sequence (looked up)": "T1 sequence", "assay": "ITC; about 25 μM peptide in the syringe titrated into about 5 μM RasGAP SH2-SH3-SH2 in the cell; 25 °C; 250 mM NaCl, 20 mM Tris pH 8, 1 mM TCEP; Independent model", "conditions": "both partners purified"}}, "note": "Residue numbers refer to the chain shown, from its start. [ ]: non-standard residue; d: D form. pY = N[C@@H](Cc1ccc(OP(=O)(O)O)cc1)C(=O)O", "data": [{"binder": "B1", "values": [{"measurement": "Kd", "setting": "[1]", "value": 5.11, "unit": "nM"}, {"measurement": "Kd", "setting": "[2]", "value": 5.04, "unit": "nM"}, {"measurement": "Kd", "setting": "[3]", "value": 4.03, "unit": "nM"}, {"measurement": "Kd", "setting": "[4]", "value": 6.49, "unit": "nM"}, {"measurement": "Kd", "setting": "[5]", "value": 3.59, "unit": "nM"}, {"measurement": "Kd", "setting": "[6]", "value": 3.65, "unit": "nM"}, {"measurement": "Kd", "setting": "[7]", "value": 7.23, "unit": "nM"}, {"measurement": "Kd", "setting": "[8]", "value": 1.2, "unit": "nM"}, {"measurement": "Kd", "setting": "[9]", "value": 8.14, "unit": "nM"}, {"measurement": "Kd", "setting": "[10]", "value": 2.08, "unit": "nM"}, {"measurement": "binding result", "setting": "[11]", "value": "binds"}, {"measurement": "binding result", "setting": "[12]", "value": "binds"}, {"measurement": "binding result", "setting": "[13]", "value": "binds"}]}]}
